Data taken from US20220249679A1 (MITSUBISHI TANABE PHARMA, published 2022).
Residue numbers refer to the chain shown, from its start. Values joined by “and” are separate entries in the source; they are usually repeats but may differ in a detail not shown here. Equal entries are not always repeated.

T1: hCD138 peptide AGEGPKEGEAVVLP (human)
T1 construct: Portion of the linear CD138 peptide used for immunization; also the peptide in the crystal structure; also called syndecan-1 peptide
T1 peptide: AGEGPKEGEAVVLP

T2: Human syndecan-1 (CD138) on the cell surface (human, UniProt P18827 23-310)
T2 construct: Endogenous on H929, KMS-11 and RT112/84 cells or transfected into Expi293 cells; also called human CD138; hCD138
T2 sequence: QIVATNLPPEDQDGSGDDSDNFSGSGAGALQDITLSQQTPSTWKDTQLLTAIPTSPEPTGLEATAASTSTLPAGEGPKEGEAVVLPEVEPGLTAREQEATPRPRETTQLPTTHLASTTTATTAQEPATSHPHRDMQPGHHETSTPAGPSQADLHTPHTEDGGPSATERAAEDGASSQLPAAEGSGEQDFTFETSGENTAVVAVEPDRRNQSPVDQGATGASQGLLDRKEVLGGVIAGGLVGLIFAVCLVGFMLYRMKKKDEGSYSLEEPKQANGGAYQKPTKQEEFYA

T3: Human CD138-Fc protein (human, UniProt P18827 23-254)
T3 construct: also called hCD138-Fc
T3 sequence: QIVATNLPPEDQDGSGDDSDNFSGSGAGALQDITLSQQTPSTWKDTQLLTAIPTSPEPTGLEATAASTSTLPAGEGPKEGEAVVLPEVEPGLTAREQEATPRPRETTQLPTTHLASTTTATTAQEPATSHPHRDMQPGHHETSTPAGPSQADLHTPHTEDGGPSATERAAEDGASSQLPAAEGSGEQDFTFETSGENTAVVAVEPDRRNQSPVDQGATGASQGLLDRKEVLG

T4: Human CD138 His (human, UniProt P18827 23-254)
T4 construct: also called hCD138
T4 sequence: T3 sequence

T5: Mouse CD138 His (mouse, UniProt P18828 23-255)
T5 construct: also called mCD138
T5 sequence: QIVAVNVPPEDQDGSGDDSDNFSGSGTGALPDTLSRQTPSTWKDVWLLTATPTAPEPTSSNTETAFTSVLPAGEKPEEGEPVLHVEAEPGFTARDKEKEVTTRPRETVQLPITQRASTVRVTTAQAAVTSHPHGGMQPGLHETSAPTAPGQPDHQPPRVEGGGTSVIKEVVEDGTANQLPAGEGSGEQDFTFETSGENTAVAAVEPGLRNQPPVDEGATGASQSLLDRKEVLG

T6: hCD138 (ELISA of Table 29) (human, UniProt P18827 23-254, limits assumed)
T6 construct: also called human CD138
T6 sequence: T3 sequence

T7: Mouse CD138 (ELISA binding assay, data not shown) (mouse, UniProt P18828 23-255, limits assumed)
T7 construct: Construct used in the ELISA is not described
T7 sequence: T5 sequence

B1: F6 ckf-rep (antibody, V domains shown)
VH: QVQLVQSGAEVVKPGASVKLSCKASGYTFTSYYLYWVKKAPGQGLDWIGEIYPRSGGTNINEKFLSRVTLTADTSTSTAYLELSSLTSEDTAVYYCTRSLLYWGQGTTLTVSS
VL: DVVMTQSPLSLSVTLGQPASISCKSSQSLLASDGKTYLNWLQQRPGQSPRRLIYLVSKLDSGVPNRFSGSGSGTDFTLQISRVEAEDVGLYYCWQGAHFPFTFGSGTKLEIKR
notes: Humanized F12P16F6 expressed as whole antibody with human constant regions (kappa light chain)
B2: F6 akf-rep (antibody, V domains shown)
VH: B1 VH with I60Y, N61A, L65Q, S66G
VL: B1 VL
notes: as for B1
B3: F6 aks-rep (antibody, V domains shown)
VH: B1 VH with I60Y, N61A, L65Q, S66G
VL: B1 VL with S7T, L15P, Q42L, R50K
notes: as for B1
B4: F6 cka-rep (antibody, V domains shown)
VH: B1 VH
VL: B1 VL with S7T, L15P, Q42L, R50K, W94M, S105G, L109V
notes: as for B1
B5: F6 f1ka-rep (antibody, V domains shown)
VH: B1 VH with V5Q, L81M, E82D
VL: B1 VL with S7T, L15P, Q42L, R50K, W94M, S105G, L109V
notes: as for B1
B6: F6 f1kf-rep (antibody, V domains shown)
VH: B1 VH with V5Q, L81M, E82D
VL: B1 VL
notes: as for B1
B7: F6 f1ks-rep (antibody, V domains shown)
VH: B1 VH with V5Q, L81M, E82D
VL: B1 VL with S7T, L15P, Q42L, R50K
notes: as for B1
B8: F6 f2kf-rep (antibody, V domains shown)
VH: B1 VH with V5Q, L70I, T74E, A79V, L81M, E82Q, T91S
VL: B1 VL
notes: as for B1
B9: F6 cks-rep (hF6) (antibody, human IgG1, kappa, V domains shown)
VH: B1 VH
VL: B1 VL with S7T, L15P, Q42L, R50K
notes: Humanized IgG1/kappa antibody; also called hF6 (no Fynomer)
B10: F13P30A7 (antibody, V domains shown)
VH: EVQLVESGGGLVQPKGSLKLSCAASGFTFNTYAMNWVRQAPGKGLEWIARIRSKSNNYATYYADSVKDRFTISRDDSQSLLYLQMNNLKTEDTAIFYCVTDYGYVYFDAWGAGTTVTVSS
VL: NIIMTQSPKSMAMSVGERVTLSCKASENVGNYVSWYQQKPEQSPKLLIYGASYRYTGVPDRFTGSGSGTDFTLTISSVQAEDLADYHCGQSSRYPLTFGAGTKLELKR
notes: Murine IgG purified from hybridoma supernatant
B11: F13P18D8 (antibody, V domains shown)
VH: B10 VH with V5L, K15E, T28A, I48L, S79G, L80M, I95M, F96Y, G103Y, A109V
VL: B10 VL with I3V, A12S, N31T, P40S, E41D, Y53N, G68A, S76T, A80S
notes: as for B10
B12: F12P7G11 (antibody, V domains shown)
VH: QVQLQQSGAELARPGASVKLSCKASGYTFSSHWMQWVKQRPGQGLEWIGAIYPGDGDTRFTQKFKGKATLTADKSSNTAYMQLSSLASEDSAVYYCARGIYYDRSRAMDYWGQGTSVTVSS
VL: QIVLSQSPAILSASPGEKVTMTCRASSSVNYMHWYQQKPGSSPKHWIYATSYLASGVPARFSGSGSGTSYSLTISRVEAEDAATYYCQQWSSDPLTFGAGTKLELKR
notes: as for B10
B13: F13P14D3 (antibody, V domains shown)
VH: B10 VH with A24T, I48V, A63V, L80T, L81V, Y82H, F96Y, Y104H, A109V
VL: B10 VL with I3V, A12S, E17Q, N31S, Y53N, Y55N, G68A, A100G
notes: as for B10
B14: F11AP11E5 (antibody, V domains shown)
VH: QVQLQQSGAELVKPGASVKLSCKASGYTFTNYYMYWVKQRPGQGLEWIGEINPGNGGTNFNEKFKNKATLTVDKSSSTAYMQLSSLTSEDSAVYYCTTRFAYWGQGTLVIVSA
VL: DVVMTQTPLSLSVTIGQPASISCKSGQSLLYSNGKTYLTWLQQRPGQAPKLLMYQVSKLDPGIPDRFSGSGSETDFTLKISRVEAEDLGVYYCLQNTYYPHTFGAGTKLELKR
notes: as for B10
B15: hF6-HC-G7 (bispecific antibody, human IgG1, kappa)
heavy: not shown
light: DVVMTQTPLSLSVTPGQPASISCKSSQSLLASDGKTYLNWLLQRPGQSPKRLIYLVSKLDSGVPNRFSGSGSGTDFTLQISRVEAEDVGLYYCWQGAHFPFTFGSGTKLEIKRTVAAPSVFIFPPSDEQLKSGTASVVCLLNNFYPREAKVQWKVDNALQSGNSQESVTEQDSKDSTYSLSSTLTLSKADYEKHKVYACEVTHQGLSSPVTKSFNRGEC
notes: IgG1/kappa

Molecular target: T1, hCD138 peptide AGEGPKEGEAVVLP
Assay: ELISA, plate-coated hCD138 peptide
Experimental: (§1) A CD138 binding ELISA was performed with 9 representative humanized antibodies to determine binding to portion of the linear CD138 peptide used for immunization (FIG. 7). […] Coated plates were incubated with various dilutions of each of the 9 representative antibodies overnight and binding was detected with a goat anti-human IgG (H+L)-HRP. EC50s were determined using four parameter fit curves (Table 21). An ELISA was also performed to detect binding to plate-coated human CD138-Fc protein (Table 21).

Binder	EC50
B1	0.981 nM
B2	1.54 nM
B3	1.28 nM
B4	1.65 nM
B5	0.744 nM
B6	0.413 nM
B7	1.31 nM
B8	0.726 nM
B9	0.33 nM

molecular target: T2, Human syndecan-1 (CD138) on the cell …; assay: summary table; repeats the EC50 (nM) of Table 20, unit not given
Experimental: (§2) Analysis of cell-surface binding to human CD138 was performed on 9 representative humanized anti-CD138 antibodies by FACS (FIG. 7). […] Two cell lines expressing moderate levels of CD138 were used to test binding; multiple myeloma cell line KMS-11 and bladder cancer line RT112/84. […] EC50s were calculated using four parameter fit curves (Table 20). The constructs were also tested against ARH-77 cells, which are CD138 negative lymphoblasts.

Binder	FACS binding (KMS11)
B1	1.64
B2	1.09
B3	1.36
B4	1.3
B5	0.83
B6	0.94
B7	0.97
B8	1.81
B9	1.2

molecular target: T3, Human CD138-Fc protein; assay: ELISA, plate-coated human CD138-Fc
Experimental: as §1

Binder	EC50
B1	0.535 nM
B2	0.879 nM
B3	0.969 nM
B4	0.855 nM
B5	0.433 nM
B6	0.225 nM
B7	0.762 nM
B8	0.405 nM
B9	0.197 nM

molecular target: T4, Human CD138 His; assay: SPR, summary table
Experimental: (§3) Murine IgGs were purified from the hybridoma supernatants and the IgGs were subject to SPR (surface plasmon resonance) for kinetic binding measurements. Human or mouse CD138 His was immobilized on a GLM chip at […] on a BioRad Proteon. […] KDs were measured using bivalent analyte fit.

Binder	Kd
B10	5 nM
B11	2 nM
B12	9 nM
B13	10 nM
B14	92 nM

molecular target: T2, Human syndecan-1 (CD138) on the cell …; assay: FACS on RT-112 cells, four parameter fit
Experimental: as §2

Binder	EC50
B1	2.09 nM
B2	1.88 nM
B3	2.13 nM
B4	2.44 nM
B5	1.39 nM
B6	1.93 nM
B7	2.73 nM
B8	2.46 nM
B9	2.2 nM

molecular target: T2, Human syndecan-1 (CD138) on the cell …; assay: FACS on KMS-11 cells, four parameter fit
Experimental: as §2

Binder	EC50
B1	1.64 nM
B2	1.09 nM
B3	1.36 nM
B4	1.3 nM
B5	0.83 nM
B6	0.94 nM
B7	0.97 nM
B8	1.81 nM
B9	1.2 nM

molecular target: T5, Mouse CD138 His; assay: SPR, mouse CD138 His immobilized
Experimental: as §3

Binder	binding result
B12	no binding (tested: 167 nM)
B14	no binding (tested: 167 nM)

molecular target: T6, hCD138 (ELISA of Table 29); assay: hCD138 ELISA

Binder	EC50
B9	0.56 nM
B15	0.55 nM

molecular target: T7, Mouse CD138 (ELISA binding assay, data …); assay: ELISA binding assay

Binder	binding result
B10	no binding
B11	no binding
B13	no binding

molecular target: T4, Human CD138 His; assay: SPR (BioRad Proteon), CD138 His immobilized, bivalent analyte fit
Experimental: as §3

Binder	Kd	koff	kon
B10	5.32 nM and 5.3 nM	0.00127 s⁻¹	238000 M⁻¹ s⁻¹
B11	1.88 nM and 1.9 nM	0.000523 s⁻¹	278000 M⁻¹ s⁻¹
B12	8.66 nM and 8.6 nM	0.033 s⁻¹	3.81e+06 M⁻¹ s⁻¹
B13	9.67 nM and 9.7 nM	0.00104 s⁻¹	107000 M⁻¹ s⁻¹
B14	91.6 nM	0.0117 s⁻¹	128000 M⁻¹ s⁻¹

molecular target: T3, Human CD138-Fc protein; assay: summary table; repeats the EC50 (nM) of Table 21, unit not given
Experimental: as §1

Binder	ELISA CD138 Fc binding
B1	0.535
B2	0.879
B3	0.969
B4	0.855
B5	0.433
B6	0.225
B7	0.762
B8	0.405
B9	0.197
